In patent US20200246383A1 (REGENTS OF THE UNIVERSITY OF MINNESOTA, published 2020):

Columns and labels:
[1] = biological target: T1, human dipeptidyl peptidase IV expressed on cells (PC3 and CaCo2 cells) (human, UniProt P27487 1-766); experiment: flow cytometry, Alexa Fluor 488 conjugated B12 IgG on hDPP-IV-expressing PC3 cells against unstained cells
T1 construct: whole, on cells; also called hDPP-IV-expressing cells; hDPP-IV-positive cell lines

[2] = biological target: T2, recombinant human dipeptidyl peptidase IV (hDPP-IV), biotinylated (human, UniProt P27487 29-766, limits assumed, biotinylated); experiment: ELISA: B12 IgG 0.1 to 500 nM on biotinylated hDPP-IV captured on streptavidin-coated wells; detection with peroxidase anti-human IgG mAb; OD 450nm
T2 construct: also called human DPP-IV
Procedure: FIG. 2A-FIG. 2E show in vitro characterization of the anti-FAP monoclonal antibody B12 immunoglobulin G (IgG). FIG. 2A. B12 IgG specificity for human fibroblast activation protein alpha (hFAP) (circle), mouse fibroblast activation protein alpha (mFAP) (square), and the homologous protease human dipeptidyl peptidase IV (hDPP-IV) (triangle) was determined by enzyme-linked immunosorbent assay (ELISA). B12 IgG was serial-diluted from 500 nM to 0.1 nM and added to protein coated wells. B12 IgG binding was detected by a peroxidase conjugated […] monoclonal antibody. FIG. 2B. […] FIG. 2C. B12 IgG binding to membrane-bound FAP was analyzed by flow cytometry. […] Unstained cells (blue line) were used as a negative control. FIG. 2D. mRNA levels of hDPP-IV were investigated by quantitative RT-PCR in prostate (R1-EnzR, R1-EnzR^FAP, PC3) and colon (Caco2) cancer cells. mRNA fold change is normalized to R1-EnzR. **p 0.01. FIG. 2E.
Dilution ELISA: A MaxiSorp plate was coated and blocked as described above. 50 μL of biotinylated human FAP, murine FAP, or human DPP-IV ([…] in PBS, 1% BSA, 0.005% Tween20) was added to 8 sets of triplicate wells each. […] B12 IgG binding was detected with a 1:1000 dilution of anti-human IgG monoclonal antibody conjugated to peroxidase (sc-2769, Santa Cruz Biotechnology, Dallas, Tex.) in PBS, 1% BSA.

T1 sequence (P27487 whole entry): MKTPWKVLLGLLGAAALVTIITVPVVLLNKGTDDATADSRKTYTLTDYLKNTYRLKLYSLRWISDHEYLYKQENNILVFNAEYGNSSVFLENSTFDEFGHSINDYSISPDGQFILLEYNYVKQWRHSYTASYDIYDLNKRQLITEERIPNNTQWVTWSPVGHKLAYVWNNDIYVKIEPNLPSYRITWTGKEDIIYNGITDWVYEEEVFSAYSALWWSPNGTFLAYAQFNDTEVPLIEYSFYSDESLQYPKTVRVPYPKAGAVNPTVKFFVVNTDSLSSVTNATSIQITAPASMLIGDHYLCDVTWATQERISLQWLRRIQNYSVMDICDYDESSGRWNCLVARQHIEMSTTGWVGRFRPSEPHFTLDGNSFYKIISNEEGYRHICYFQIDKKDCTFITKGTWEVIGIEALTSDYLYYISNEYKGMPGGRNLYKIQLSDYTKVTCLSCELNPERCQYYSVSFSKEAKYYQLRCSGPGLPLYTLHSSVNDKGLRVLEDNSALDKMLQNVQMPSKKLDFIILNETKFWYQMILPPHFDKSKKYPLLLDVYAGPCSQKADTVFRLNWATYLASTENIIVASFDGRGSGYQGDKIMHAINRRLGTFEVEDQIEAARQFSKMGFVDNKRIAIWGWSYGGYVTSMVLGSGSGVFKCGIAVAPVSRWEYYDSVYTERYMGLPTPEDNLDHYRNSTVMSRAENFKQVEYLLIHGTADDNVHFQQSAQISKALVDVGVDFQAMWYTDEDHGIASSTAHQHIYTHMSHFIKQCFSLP
T2 sequence (P27487 29-766 limits assumed): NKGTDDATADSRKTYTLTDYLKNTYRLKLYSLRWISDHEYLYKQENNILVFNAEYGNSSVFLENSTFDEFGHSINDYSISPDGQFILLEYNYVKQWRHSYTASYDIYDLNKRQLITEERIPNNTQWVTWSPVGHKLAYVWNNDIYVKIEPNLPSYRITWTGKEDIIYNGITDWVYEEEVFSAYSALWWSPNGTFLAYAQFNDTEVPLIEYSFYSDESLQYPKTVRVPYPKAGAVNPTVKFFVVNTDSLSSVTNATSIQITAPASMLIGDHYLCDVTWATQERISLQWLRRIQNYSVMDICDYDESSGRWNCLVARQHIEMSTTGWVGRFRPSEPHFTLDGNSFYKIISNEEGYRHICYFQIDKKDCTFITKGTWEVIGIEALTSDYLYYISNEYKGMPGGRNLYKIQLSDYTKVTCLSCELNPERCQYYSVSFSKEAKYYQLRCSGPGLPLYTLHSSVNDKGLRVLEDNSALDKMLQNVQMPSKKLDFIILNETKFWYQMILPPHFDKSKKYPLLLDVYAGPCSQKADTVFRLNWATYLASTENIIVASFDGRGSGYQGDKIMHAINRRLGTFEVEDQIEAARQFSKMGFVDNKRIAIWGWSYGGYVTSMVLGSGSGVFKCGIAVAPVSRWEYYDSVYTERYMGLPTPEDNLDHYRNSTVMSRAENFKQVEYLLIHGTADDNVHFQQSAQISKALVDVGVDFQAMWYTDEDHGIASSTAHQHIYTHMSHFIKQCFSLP

B1: B12 IgG (chimeric anti-FAP monoclonal antibody: murine B12 variable domains in a full-length human IgG) (antibody, V domains shown)
VH: EVMLVESGGGLVQPGGSLKLSCAASGFTFSSYGMSWVRQTPDKRLELVATINSNGGSTYYPDSVKGRFTISRDNAKNTLYLQMSSLKSEDTAMYYCARDYFDYWGQGTTLTVSS
VL: DIVITQSPSSLSASLGERVSLTCRASQEISGYLSWLQQKPDGTIKLIYAASTLDSGVPKRFSGSRSGSDYSLTISSLESEDFADYYCLQYASYPWTFGGGTKLEIKR
notes: They were cloned into pFUSEss human IgG expression vectors (Invivogen) and expressed in HEK293T cells; capture was detected with an anti-human IgG1 secondary and the isotype control is human IgG1; also called anti-FAP mAb; aFAP
Question: Does B1 bind [1]?
Answer: Result: no binding (tested: 100 nM)

Question: Does B1 bind [2]?
Answer: Result: no binding (tested: 500 nM)
